Source: patent US20260167699A1 (Chugai, published 2026)
Changes are numbered by the printed parent chain.

T1: FcγRIIa(R) (human, UniProt P12318 34-217)
T1 construct: extracellular domain; also called 2aR
T1 sequence: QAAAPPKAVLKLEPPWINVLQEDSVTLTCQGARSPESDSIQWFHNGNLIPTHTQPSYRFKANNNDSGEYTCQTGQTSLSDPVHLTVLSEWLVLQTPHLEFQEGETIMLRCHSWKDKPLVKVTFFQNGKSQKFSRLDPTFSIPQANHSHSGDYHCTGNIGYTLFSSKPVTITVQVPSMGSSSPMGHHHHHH

T2: FcγRIIb (human, UniProt P31994 43-217)
T2 construct: extracellular domain; also called 2b
T2 sequence: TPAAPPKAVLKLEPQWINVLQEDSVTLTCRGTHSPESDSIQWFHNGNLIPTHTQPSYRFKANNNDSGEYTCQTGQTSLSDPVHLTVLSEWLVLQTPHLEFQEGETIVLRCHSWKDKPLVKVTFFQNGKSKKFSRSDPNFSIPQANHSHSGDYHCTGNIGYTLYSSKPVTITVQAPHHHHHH

T3: FcγRIIa(H) (human, UniProt P12318 34-217)
T3 construct: extracellular domain; also called 2aH
T3 sequence: T1 sequence with R134H

B1: GpH7-A5/GpH7-B3 variant A330_03V/GpL16-k0 (antibody, human IgG1, kappa)
heavy 1: not shown
heavy 2: not shown
light: DIVMTQSPLSLPVTPGEPASISCQASESLVHSNRNTYLHWYLQKPGQSPQLLIYKVSNRFSGVPDRFSGSGSGTDFTLKISRVEAEDVGVYYCSQNTHVPPTFGQGTKVEIERTVAAPSVFIFPPSDEQLKSGTASVVCLLNNFYPREAKVQWKVDNALQSGNSQESVTEQDSKDSTYSLSSTLTLSKADYEKHKVYACEVTHQGLSSPVTKSFNRGEC
notes: He Ab: heterodimerized IgG1, one H chain mutated
B2: GpH7-A5/GpH7-B3 variant A330_09D/GpL16-k0 (antibody, human IgG1, kappa)
heavy 1: not shown
heavy 2: not shown
light: B1 light
notes: as for B1
B3: GpH7-A5/GpH7-B3 variant K326_02A/GpL16-k0 (antibody, human IgG1, kappa)
heavy 1: not shown
heavy 2: not shown
light: B1 light
notes: as for B1
B4: GpH7-A5/GpH7-B3 variant A330_04F/GpL16-k0 (antibody, human IgG1, kappa)
heavy 1: not shown
heavy 2: not shown
light: B1 light
notes: as for B1
B5: GpH7-A5/GpH7-B3 variant K326_05P/GpL16-k0 (antibody, human IgG1, kappa)
heavy 1: not shown
heavy 2: not shown
light: B1 light
notes: as for B1
B6: GpH7-A5/GpH7-B3 variant K326_04F/GpL16-k0 (antibody, human IgG1, kappa)
heavy 1: not shown
heavy 2: not shown
light: B1 light
notes: as for B1
B7: GpH7-A5/GpH7-B3 variant K326_16H/GpL16-k0 (antibody, human IgG1, kappa)
heavy 1: not shown
heavy 2: not shown
light: B1 light
notes: as for B1
B8: GpH7-A5/GpH7-B3 variant K326_15Y/GpL16-k0 (antibody, human IgG1, kappa)
heavy 1: not shown
heavy 2: not shown
light: B1 light
notes: as for B1
B9: GpH7-A5/GpH7-B3 variant A330_18N/GpL16-k0 (antibody, human IgG1, kappa)
heavy 1: not shown
heavy 2: not shown
light: B1 light
notes: as for B1
B10: GpH7-A5/GpH7-B3 variant K326_18N/GpL16-k0 (antibody, human IgG1, kappa)
heavy 1: not shown
heavy 2: not shown
light: B1 light
notes: as for B1
B11: GpH7-A5/GpH7-B3 variant K326_19Q/GpL16-k0 (antibody, human IgG1, kappa)
heavy 1: not shown
heavy 2: not shown
light: B1 light
notes: as for B1
B12: GpH7-A5/GpH7-B3 variant K326_14T/GpL16-k0 (antibody, human IgG1, kappa)
heavy 1: not shown
heavy 2: not shown
light: B1 light
notes: as for B1
B13: GpH7-A5/GpH7-B3 variant K326_07I/GpL16-k0 (antibody, human IgG1, kappa)
heavy 1: not shown
heavy 2: not shown
light: B1 light
notes: as for B1
B14: GpH7-A5/GpH7-B3 variant A330_20W/GpL16-k0 (antibody, human IgG1, kappa)
heavy 1: not shown
heavy 2: not shown
light: B1 light
notes: as for B1
B15: GpH7-A5/GpH7-B3 variant A330_19Q/GpL16-k0 (antibody, human IgG1, kappa)
heavy 1: not shown
heavy 2: not shown
light: B1 light
notes: as for B1
B16: GpH7-A5/GpH7-B3 variant K326_09D/GpL16-k0 (antibody, human IgG1, kappa)
heavy 1: not shown
heavy 2: not shown
light: B1 light
notes: as for B1
B17: GpH7-A5/GpH7-B3 variant K326_12R/GpL16-k0 (antibody, human IgG1, kappa)
heavy 1: not shown
heavy 2: not shown
light: B1 light
notes: as for B1
B18: GpH7-A5/GpH7-B3 variant A330_08L/GpL16-k0 (antibody, human IgG1, kappa)
heavy 1: not shown
heavy 2: not shown
light: B1 light
notes: as for B1
B19: GpH7-A5/GpH7-B3 variant A330_14T/GpL16-k0 (antibody, human IgG1, kappa)
heavy 1: not shown
heavy 2: not shown
light: B1 light
notes: as for B1
B20: GpH7-A5/GpH7-B3 variant K326_06M/GpL16-k0 (antibody, human IgG1, kappa)
heavy 1: not shown
heavy 2: not shown
light: B1 light
notes: as for B1
B21: GpH7-A5/GpH7-B3 variant K326_03V/GpL16-k0 (antibody, human IgG1, kappa)
heavy 1: not shown
heavy 2: not shown
light: B1 light
notes: as for B1
B22: GpH7-A5/GpH7-B3 variant A330_10E/GpL16-k0 (antibody, human IgG1, kappa)
heavy 1: not shown
heavy 2: not shown
light: B1 light
notes: as for B1
B23: GpH7-A5/GpH7-B3 variant K326_10E/GpL16-k0 (antibody, human IgG1, kappa)
heavy 1: not shown
heavy 2: not shown
light: B1 light
notes: as for B1
B24: GpH7-A5/GpH7-B3 variant A330_07I/GpL16-k0 (antibody, human IgG1, kappa)
heavy 1: not shown
heavy 2: not shown
light: B1 light
notes: as for B1
B25: GpH7-A5/GpH7-B3 variant K326_20W/GpL16-k0 (antibody, human IgG1, kappa)
heavy 1: not shown
heavy 2: not shown
light: B1 light
notes: as for B1
B26: GpH7-A5/GpH7-B3 variant A330_16H/GpL16-k0 (antibody, human IgG1, kappa)
heavy 1: not shown
heavy 2: not shown
light: B1 light
notes: as for B1
B27: GpH7-A5/GpH7-B3 variant K326_08L/GpL16-k0 (antibody, human IgG1, kappa)
heavy 1: not shown
heavy 2: not shown
light: B1 light
notes: as for B1
B28: GpH7-A5/GpH7-B3 variant K326_13S/GpL16-k0 (antibody, human IgG1, kappa)
heavy 1: not shown
heavy 2: not shown
light: B1 light
notes: as for B1
B29: GpH7-A5/GpH7-B3 variant K326_01G/GpL16-k0 (antibody, human IgG1, kappa)
heavy 1: not shown
heavy 2: not shown
light: B1 light
notes: as for B1

Target: T4, FcγRIa (human, UniProt P12314 16-292)
T4 construct: extracellular domain; also called 1a
T4 sequence (P12314 other isoform, or with tags, fused parts or gaps): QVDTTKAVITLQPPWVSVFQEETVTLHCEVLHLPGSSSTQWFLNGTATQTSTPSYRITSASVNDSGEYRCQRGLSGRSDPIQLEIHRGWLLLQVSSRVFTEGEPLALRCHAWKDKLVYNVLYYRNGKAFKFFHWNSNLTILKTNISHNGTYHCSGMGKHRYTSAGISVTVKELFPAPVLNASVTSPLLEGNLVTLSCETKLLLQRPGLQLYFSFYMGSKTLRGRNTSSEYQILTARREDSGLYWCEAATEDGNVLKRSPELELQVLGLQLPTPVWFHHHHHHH
Experiment: SPR, relative to GpH7-A5/GpH7-B3/GpL16-k0 =100

He/Con 1a [%] | Binder
109 | B1
112 | B2
107 | B3
110 | B4
106 | B5
107 | B6
109 | B7
111 | B8
110 | B9
110 | B10
108 | B11
109 | B12
106 | B13
111 | B14
109 | B15
109 | B16
105 | B17
110 | B18
108 | B19
108 | B20
107 | B21
111 | B22
109 | B23
109 | B24
108 | B25
109 | B26
105 | B27
106 | B28
106 | B29

Target: T1, FcγRIIa(R)
Experiment: SPR, relative to GpH7-A5/GpH7-B3/GpL16-k0 =100

He/Con 2aR [%] | Binder
84 | B1
79.5 | B2
125 | B3
112 | B4
118 | B5
129 | B6
115 | B7
131 | B8
91 | B9
110 | B10
124 | B11
128 | B12
141 | B13
97.6 | B14
117 | B15
142 | B16
98.6 | B17
99.7 | B18
107 | B19
132 | B20
135 | B21
97.2 | B22
142 | B23
96 | B24
125 | B25
111 | B26
131 | B27
119 | B28
108 | B29

Target: T2, FcγRIIb
Experiment: SPR, relative to GpH7-A5/GpH7-B3/GpL16-k0 =100

He/Con 2b [%] | Binder
59.2 | B1
62.8 | B2
156 | B3
105 | B4
141 | B5
174 | B6
133 | B7
179 | B8
71.9 | B9
118 | B10
156 | B11
168 | B12
223 | B13
86 | B14
103 | B15
216 | B16
100 | B17
79.6 | B18
87.9 | B19
185 | B20
196 | B21
79.2 | B22
224 | B23
75.8 | B24
166 | B25
99 | B26
198 | B27
139 | B28
119 | B29

Target: T3, FcγRIIa(H)
Experiment: SPR, relative to GpH7-A5/GpH7-B3/GpL16-k0 =100

He/Con 2aH [%] | Binder
86.1 | B1
67.8 | B2
110 | B3
104 | B4
103 | B5
101 | B6
102 | B7
102 | B8
88.3 | B9
113 | B10
106 | B11
119 | B12
104 | B13
93.8 | B14
110 | B15
115 | B16
105 | B17
94.7 | B18
102 | B19
108 | B20
101 | B21
87.7 | B22
106 | B23
94.4 | B24
86.7 | B25
110 | B26
96.5 | B27
110 | B28
105 | B29
